# Patent US20100092994A1
# Square brackets hold non-standard residues; d marks the D form. Ends that are not written are not given here. Hyp = O=C(O)[C@@H]1C[C@@H](O)CN1
# B1: synthetic peptide ESS (SEQ ID NO: 4), ESSSHHP(OH)GIAEFPSR, oxidatively modified FGA partial peptide (peptide)
# peptide: ESSSHH[Hyp]GIAEFPSR
# Columns and labels:
# [1] = target: monoclonal antibody derived from clone 11A5 (Anti HP-FGA MAb Clone: 11A5; hybridoma FERM AP-21698); experiment: competitive ELISA; reference is the unmodified peptide ESS-HP (SEQ ID NO: 2)
# [2] = target: monoclonal antibody derived from clone 11G7; experiment: as above
# [3] = target: monoclonal antibody derived from clone 11A5 (Anti HP-FGA MAb Clone: 11A5; hybridoma FERM AP-21698); experiment: competitive ELISA: free peptide prereacted with antibody supernatant, then added to the solid-phased oxidatively modified peptide
# [4] = target: monoclonal antibody derived from clone 11G7; experiment: as above
binder,measurement,setting,value
B1,fold of 50% inhibition against ESS-HP (SEQ ID NO: 2),[1],> 25 times
same,fold of 50% inhibition against ESS-HP (SEQ ID NO: 2),[2],> 25 times
same,IC50,[3],0.4 µg/mL
same,IC50,[4],0.4 µg/mL
